Results as given in publication PMC11605949.

Biological target: HER2 (human, UniProt P04626 23-652)
Assay: SPR

B1: HER2 aptamer (ssDNA)
DNA: AACCGCCCAAATCCCTAAGAGTCTGCACTTGTCATTTTGTATATGTATTTGGTTTTTGGCTCTCACAGACACACTACACACGCACA
modifications: 5'-SH-(CH2)6
B1: binds.
